Experimental data as given in patent US20150086555A1.

B1: TCN-523 (5248_A17) (antibody, V domains shown)
VH: QVQLVQSGAEVKKPGSSVKVSCKASGGSFSNYAFSWVRQAPGQGLEWMGGTIPLLGTTNYAQKFQGRVTISADQFTSTAYMELGSLRSEDTAVYYCTRRKMTTAFDSWGQGTLVTVSS
VL: QPVLTQPPSASASLGASVTLTCTLSSAYSNYKVDWYQQRPGKGPRFVMRVGTGGIVGSKGDGIPDRFSVLGSGLNRYLTIKNIQEEDESDYHCGADHGSGSNFVSPYVFGGGTKLTVL
B2: TCN-504 (3251_K17) (antibody, V domains shown)
VH: QVQLQESGPGLVKPSETLSLTCAVSGVSISNIDFYWGWIRQPPGKGLEWIGNIYYTGITFYNPSLSSRVAISIDTSKNQFSLTLTSVTAADTAMYYCARHYGDSEAINDAFDIWGQGTMLTVSS
VL: EIVMTQSPATLSVSPGERATLSCRASQSVGNSLAWYQQRPGQAPRLLIYGASTRATGIPPRFSGSGSGTEFTLTISSLQTEDFAVYYCQQYINWRPLSFGGGTKVEIK

What was measured:
Conditions in all cases: remark: other sources report otherwise
[1] = molecular target: recombinant soluble homotrimeric HA of A/northern shoveler/California/HKWF115/07 (H6) (Influenza A virus A/northern shoveler/California/HKWF115/2007(H6N1)); assay: trimeric HA microarray, transfection supernatant set 1
[2] = molecular target: recombinant soluble homotrimeric HA of A/Hong Kong/1073/99 (H9N2) (Influenza A virus A/Hong Kong/1073/99 (H9N2)); assay: as above
[3] = molecular target: T1, recombinant soluble homotrimeric HA of A/duck/Yangzhou/02/05 (H8N4) (Influenza A virus A/duck/Yangzhou/02/2005(H8N4)); assay: as above
[4] = molecular target: T2, recombinant soluble homotrimeric HA of A/Wisconsin/67/05 (H3N2) (Influenza A virus A/Wisconsin/67/2005(H3N2)); assay: as above
[5] = molecular target: recombinant soluble homotrimeric HA of A/Solomon Islands/3/06 (H1N1) (Influenza A virus A/Solomon Islands/3/2006(H1N1)); assay: HA microarray, control antibody
[6] = molecular target: T1, recombinant soluble homotrimeric HA of …; assay: HA microarray, control antibody
[7] = molecular target: recombinant soluble homotrimeric HA of A/Vietnam/1203/04 (H5N1) (Influenza A virus A/VietNam/1203/2004(H5N1)); assay: HA microarray, control antibody
[8] = molecular target: recombinant soluble homotrimeric HA of A/Indonesia/5/05 (H5N1) (Influenza A virus A/Indonesia/5/2005(H5N1)); assay: HA microarray, control antibody
[9] = molecular target: recombinant soluble homotrimeric HA of A/Netherlands/219/03 (H7N7) (Influenza A virus A/Netherlands/219/03(H7N7)); assay: HA microarray, control antibody
[10] = molecular target: recombinant soluble homotrimeric HA of A/Japan/305/57 (H2N2) (Influenza A virus A/Japan/305/1957(H2N2)); assay: HA microarray, control antibody
[11] = molecular target: recombinant soluble homotrimeric HA of A/Egypt/3300-NAMRU3/08 (H5N1) (Influenza A virus A/Egypt/3300-NAMRU3/2008(H5N1)); assay: HA microarray, control antibody
[12] = molecular target: recombinant soluble homotrimeric HA of A/California/4/09 (H1N1) (Influenza A virus A/California/04/2009(H1N1)); assay: HA microarray, control antibody
[13] = molecular target: recombinant soluble homotrimeric HA of A/chicken/Vietnam/NCVD-016/08 (H5N1) (Influenza A virus A/chicken/Vietnam/NCVD-016/2008(H5N1)); assay: HA microarray, control antibody
[14] = molecular target: recombinant soluble homotrimeric HA of A/swine/Ontario/01911-2/99 (H4N6) (Influenza A virus A/Swine/Ontario/01911-2/99 (H4N6)); assay: HA microarray, control antibody
[15] = molecular target: T2, recombinant soluble homotrimeric HA of …; assay: HA microarray, control antibody
[16] = molecular target: recombinant soluble homotrimeric HA of A/Anhui/1/05 (H5N1) (Influenza A virus A/Anhui/1/2005(H5N1)); assay: HA microarray, control antibody

Binder | Trimeric HA Binding: RLU [1] [RLU] | Trimeric HA Binding: RLU [2] [RLU] | Trimeric HA Binding: RLU [3] [RLU] | Trimeric HA Binding: RLU [4] [RLU] | Trimeric HA Binding: RLU [5] [RLU] | Trimeric HA Binding: RLU [6] [RLU] | Trimeric HA Binding: RLU [7] [RLU] | Trimeric HA Binding: RLU [8] [RLU] | Trimeric HA Binding: RLU [9] [RLU] | Trimeric HA Binding: RLU [10] [RLU] | Trimeric HA Binding: RLU [11] [RLU] | Trimeric HA Binding: RLU [12] [RLU] | Trimeric HA Binding: RLU [13] [RLU] | Trimeric HA Binding: RLU [14] [RLU] | Trimeric HA Binding: RLU [15] [RLU] | Trimeric HA Binding: RLU [16] [RLU]
B1 | 9050 | 21700 |  |  |  |  |  |  |  |  |  |  |  |  |  | 
B2 |  |  | 28900 | 14300 | 24100 | 14100 | 196 | 43300 | 47200 | 4090 | 44400 | 3330 | 38500 | 14700 | 40500 | 26200
